Laboratory results reported in patent publication US20140179593A1 (published 2014).
Starred links: 1 amine or outer side, 2 acyl side, 3 side chain; linkers in the order of their positions; H or OH if unused. Positions of bridges follow the written chain, without caps; N, C: chain ends. Non-standard residues stand in square brackets, D forms with d. *: point of attachment. αMeNva(5-ylidene) = C[C@@](CCC=[*:3])(N[*:1])C(=O)[*:2]; S8 = C=CCCCCCC[C@](C)(N)C(=O)O; SeMet = C[Se]CC[C@H](N)C(=O)O; S5 = C=CCCC[C@](C)(N)C(=O)O; Nle = CCCC[C@H](N)C(=O)O; For = O=C*

How the values were obtained:
[1] = molecular target: T1, hDcn1^P (potentiating neddylation / PONY domain of human Dcn1, DCUN1D1) (Homo sapiens, UniProt Q96GG9 62-259); assay: ITC, peptide titrated into Dcn PONY domain
T1 construct: also called DCUN1D1^P; SCCRO PONY domain
Experimental: (§1) Protein samples were buffer matched by desalting over a NAP-5 column (GE Healthcare) into 50 mM Hepes, 125 mM NaCl, 1 mM BME, pH 7.0 (ITC buffer). Peptides were dissolved by weight to a final concentration of 10 mM in ITC buffer and diluted further in ITC buffer as required for the experiments. […] The peptide ligands (4 mM) were constantly injected (1.5 μl). The interval time between each injection was 3 minutes and the duration of each injection was 3 seconds. […] Peptide ligands (250 μM) were constantly injected (2.5 μl). The interval time between each injection was three minutes and the duration of each injection was 5 seconds. […] The interval time between each injection was 3 minutes and the duration of each injection was 5 seconds. Obtained spectra were evaluated using Origin (V 7.0) to determine heats of binding and Kd values.

[2] = molecular target: T1, hDcn1^P (potentiating neddylation / …); assay: ITC, two-site fit, first value
Experimental: as §1

[3] = molecular target: T2, yE1 for yNedd8 (Ula1-Uba3) (Saccharomyces cerevisiae, UniProt Q12059 1-462, limits assumed); assay: ITC, peptide titrated into yE1
T2 construct: Heterodimeric E1 expressed in E. coli as described in earlier publications
T2 sequence 1: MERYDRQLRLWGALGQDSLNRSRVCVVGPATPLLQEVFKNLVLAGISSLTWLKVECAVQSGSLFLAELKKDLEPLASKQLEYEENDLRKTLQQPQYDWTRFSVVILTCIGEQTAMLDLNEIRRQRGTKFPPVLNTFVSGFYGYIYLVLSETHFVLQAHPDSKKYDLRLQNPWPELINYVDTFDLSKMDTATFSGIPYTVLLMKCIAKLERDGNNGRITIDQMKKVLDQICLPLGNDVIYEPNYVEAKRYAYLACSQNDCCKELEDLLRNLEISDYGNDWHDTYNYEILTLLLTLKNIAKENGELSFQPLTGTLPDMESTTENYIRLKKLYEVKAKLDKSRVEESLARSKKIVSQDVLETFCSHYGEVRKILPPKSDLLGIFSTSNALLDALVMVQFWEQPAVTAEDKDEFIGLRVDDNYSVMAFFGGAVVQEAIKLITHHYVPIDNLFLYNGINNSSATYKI
T2 sequence 2: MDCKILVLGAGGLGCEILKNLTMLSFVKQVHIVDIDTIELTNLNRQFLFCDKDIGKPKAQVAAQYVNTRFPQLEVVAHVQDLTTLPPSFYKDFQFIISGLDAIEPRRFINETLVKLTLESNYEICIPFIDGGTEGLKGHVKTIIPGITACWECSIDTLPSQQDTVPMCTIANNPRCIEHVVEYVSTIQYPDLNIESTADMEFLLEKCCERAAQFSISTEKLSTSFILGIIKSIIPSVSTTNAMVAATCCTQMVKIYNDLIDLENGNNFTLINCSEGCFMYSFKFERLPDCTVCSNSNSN
Experimental: (§2) To gain insights into mechanistic roles of Ubc12 N-terminal acetylation, isothermal titration calorimetry (ITC) was used to quantify interactions with peptides corresponding to the N-termini of yeast or human Ubc12.
as §1

[4] = molecular target: T3, yDcn1^P (potentiating neddylation / PONY domain of Saccharomyces cerevisiae Dcn1) (Saccharomyces cerevisiae, UniProt Q12395 70-269); assay: ITC, peptide titrated into yDcn1^P
T3 construct: NEDD8 co-E3; Expressed in E. coli
T3 sequence: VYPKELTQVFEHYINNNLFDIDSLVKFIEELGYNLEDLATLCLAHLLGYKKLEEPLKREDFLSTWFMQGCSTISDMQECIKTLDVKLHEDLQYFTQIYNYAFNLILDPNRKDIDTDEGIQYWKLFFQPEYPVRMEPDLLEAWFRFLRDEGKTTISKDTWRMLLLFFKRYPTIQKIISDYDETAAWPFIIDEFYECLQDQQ
Experimental: as §2, §1

[5] = molecular target: hDcn2^P (PONY domain of human DCUN1D2) (Homo sapiens, UniProt Q6PH85 62-259); assay: ITC, peptide titrated into Dcn PONY domain
Experimental: as §1

[6] = molecular target: T4, hDcn3^P (PONY domain of human DCUN1D3) (Homo sapiens, UniProt Q8IWE4 86-304); assay: ITC, peptide titrated into Dcn PONY domain
T4 sequence: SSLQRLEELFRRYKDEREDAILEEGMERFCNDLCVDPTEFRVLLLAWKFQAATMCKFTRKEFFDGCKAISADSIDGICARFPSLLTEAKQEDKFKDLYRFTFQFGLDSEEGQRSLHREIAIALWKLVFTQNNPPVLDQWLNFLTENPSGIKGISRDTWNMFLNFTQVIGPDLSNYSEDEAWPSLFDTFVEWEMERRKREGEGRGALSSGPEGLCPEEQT
Experimental: as §1

T1 sequence (Q96GG9 62-259): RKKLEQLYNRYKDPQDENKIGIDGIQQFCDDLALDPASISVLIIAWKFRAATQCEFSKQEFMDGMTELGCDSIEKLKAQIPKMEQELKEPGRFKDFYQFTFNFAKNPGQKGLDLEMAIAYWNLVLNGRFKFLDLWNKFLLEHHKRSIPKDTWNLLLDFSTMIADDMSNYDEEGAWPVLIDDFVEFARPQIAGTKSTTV
Sequence of hDcn2^P (PONY domain of human DCUN1D2) (Q6PH85 62-259 limits assumed): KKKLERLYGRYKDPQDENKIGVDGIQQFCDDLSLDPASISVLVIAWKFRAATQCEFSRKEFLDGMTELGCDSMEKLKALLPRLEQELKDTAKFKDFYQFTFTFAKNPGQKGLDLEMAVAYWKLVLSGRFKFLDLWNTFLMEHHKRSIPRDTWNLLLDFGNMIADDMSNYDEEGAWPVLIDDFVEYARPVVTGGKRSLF

B1: hUbc12^Formyl-1-26 (peptide)
peptide: For-MIKLFSLKQQKKEEESAGGTKGSSKK-NH2
SMILES: CC[C@H](C)[C@H](NC(=O)[C@H](CCSC)NC=O)C(=O)N[C@@H](CCCCN)C(=O)N[C@@H](CC(C)C)C(=O)N[C@@H](Cc1ccccc1)C(=O)N[C@@H](CO)C(=O)N[C@@H](CC(C)C)C(=O)N[C@@H](CCCCN)C(=O)N[C@@H](CCC(N)=O)C(=O)N[C@@H](CCC(N)=O)C(=O)N[C@@H](CCCCN)C(=O)N[C@@H](CCCCN)C(=O)N[C@@H](CCC(=O)O)C(=O)N[C@@H](CCC(=O)O)C(=O)N[C@@H](CCC(=O)O)C(=O)N[C@@H](CO)C(=O)N[C@@H](C)C(=O)NCC(=O)NCC(=O)N[C@H](C(=O)N[C@@H](CCCCN)C(=O)NCC(=O)N[C@@H](CO)C(=O)N[C@@H](CO)C(=O)N[C@@H](CCCCN)C(=O)N[C@@H](CCCCN)C(N)=O)[C@@H](C)O
notes: Synthetic peptide; also called Formyl-hUbc12^1-26
How did the Kd [1] turn out when B1 was run?
Its Kd is 9700 nM.

B2: hUbc12^Ac1-12 (NorLeu) (peptide)
peptide: XIKLFSLKQQKK
modifications: N-terminal acetyl; norleucine at position 1 in place of Met; C-terminal amide
notes: Synthetic peptide
With B2 as the binder, how does the Kd [1] read?
The Kd was 5600 nM.

B3: hUbc12^Ac1-12 (SeMet) 5, 9 (peptide)
peptide: Ac-[SeMet]IKL[S5]SLK[S5]QKK-NH2
modifications: staple 5-9
notes: Stapled synthetic peptide
With B3 as the binder, how does the Kd [1] read?
Its Kd is 182 nM.

B4: hUbc12^Ac1-12 (Met) Oct:But 6, 10 (peptide)
peptide: Ac-MIKLF[S8]LKQ[αMeNva(5-ylidene)]KK-NH2
modifications: staple 6-10
notes: Stapled synthetic peptide; by the label the octenyl- and butenyl-alanine residues stand in the reverse order of the But:Oct peptide
For B4, which Kd [1] is on record?
The Kd was 129 nM.

B5: hUbc12^Ac1-Ac3-26 (peptide)
peptide: Ac-MIK(Ac)LFSLKQQKKEEESAGGTKGSSKK-NH2
notes: Synthetic peptide
B5 was tested. Which Kd [1] did it give?
The Kd was 4600 nM.

B6: hUbc12^Ac1-12 (Met) RR 6, 10 (peptide)
peptide: Ac-MIKLF[(R)‑2‑(4-pentenyl)alanine]LKQ[(R)‑2‑(4-pentenyl)alanine]KK-NH2
modifications: staple 6-10
notes: Stapled synthetic peptide; 'RR' is not explained in the text
With B6 as the binder, how does the Kd [2] read?
The Kd was 340 nM.

B7: Acetyl-yUbc12^1-24 peptide (peptide)
peptide: Ac-MLKLRQLQKKKQKENENSSSIQPN-NH2
notes: Synthetic peptide; also called yUbc12^Ac1-24
How did the Kd [3] turn out when B7 was run?
Its Kd is 16 nM.

And the “N (stoichiometry)” value [3]?
The value was 0.99.

What about the ΔH [3] of the same binder?
The ΔH was -11.3 kcal/mol.

What about the ΔS [3] of the same binder?
The ΔS was -3.8 cal/mol/deg.

And the Kd [4]?
Its Kd is 444 nM.

And the ΔH [4]?
Its ΔH is 4.15 kcal/mol.

And the ΔS [4]?
Its ΔS is 43.6 cal/mol/deg.

B8: hUbc12^Ac1-12 (Met) KE 6, 10 (peptide)
peptide: Ac-MIKLFKLKQEKK-NH2
modifications: bridge 6-10; also: K6-E10 staple, chemistry not given here
notes: Stapled synthetic peptide
How did the Kd [1] turn out when B8 was run?
Its Kd is 483 nM.

B9: hUbc12^Ac1-12 (Met) 5, 9 (peptide)
peptide: Ac-MIKL[S5]SLK[S5]QKK-NH2
modifications: staple 5-9
notes: also called Acetyl-hUbc12^1-12(5:9Staple)
How did the Kd [1] turn out when B9 was run?
Its Kd is 153 nM.

B10: yUbc12^Ac1-12 (NorLeu) 5, 9 (peptide)
peptide: Ac-[Nle]LKL[S5]QLQ[S5]KKQ-NH2
modifications: staple 5-9
SMILES: CCCC[C@H](NC(C)=O)C(=O)N[C@@H](CC(C)C)C(=O)N[C@@H](CCCCN)C(=O)N[C@@H](CC(C)C)C(=O)N[C@@]1(C)CCCC=CCCC[C@@](C)(C(=O)N[C@@H](CCCCN)C(=O)N[C@@H](CCCCN)C(=O)N[C@@H](CCC(N)=O)C(N)=O)NC(=O)[C@H](CCC(N)=O)NC(=O)[C@H](CC(C)C)NC(=O)[C@H](CCC(N)=O)NC1=O
notes: Stapled synthetic peptide
Which Kd [1] does the source give for B10 here?
Its Kd is 418 nM.

And the Kd [5]?
The Kd was 515 nM.

B11: hUbe2f^Ac1-25 (peptide)
peptide: Ac-MLTLASKLKRDDGLKGSRTAATASD-NH2
notes: Synthetic peptide of the N-terminus of human Ube2f; also called Acetyl-hUbe2f^1-25
How did the Kd [6] turn out when B11 was run?
The Kd was 2000 nM.

B12: yUbc12^Ac1-12 (NorLeu) (peptide)
peptide: Ac-[Nle]LKLRQLQKKKQ-NH2
SMILES: CCCC[C@H](NC(C)=O)C(=O)N[C@@H](CC(C)C)C(=O)N[C@@H](CCCCN)C(=O)N[C@@H](CC(C)C)C(=O)N[C@@H](CCCNC(=N)N)C(=O)N[C@@H](CCC(N)=O)C(=O)N[C@@H](CC(C)C)C(=O)N[C@@H](CCC(N)=O)C(=O)N[C@@H](CCCCN)C(=O)N[C@@H](CCCCN)C(=O)N[C@@H](CCCCN)C(=O)N[C@@H](CCC(N)=O)C(N)=O
How did the Kd [1] turn out when B12 was run?
Its Kd is 628 nM.

And the Kd [5]?
The Kd was 793 nM.

B13: Acetyl-yUbc12^2-24 peptide (peptide)
peptide: Ac-LKLRQLQKKKQKENENSSSIQPN-NH2
notes: Synthetic peptide lacking Met1
How did the Kd [3] turn out when B13 was run?
Its Kd is 1580 nM.

What about the “N (stoichiometry)” value [3] of the same binder?
Its value is 0.92.

And the ΔH [3]?
The ΔH was -9.62 kcal/mol.

And the ΔS [3]?
The ΔS was -7.21 cal/mol/deg.

What about the ΔH [4] of the same binder?
The ΔH was 3.76 kcal/mol.

And the ΔS [4]?
Its ΔS is 33.4 cal/mol/deg.

B14: hUbc12^Ac1-12 (NorLeu) 5, 9 (peptide)
peptide: Ac-[Nle]IKL[S5]SLK[S5]QKK-NH2
modifications: staple 5-9
SMILES: CCCC[C@H](NC(C)=O)C(=O)N[C@H](C(=O)N[C@@H](CCCCN)C(=O)N[C@@H](CC(C)C)C(=O)N[C@@]1(C)CCCC=CCCC[C@@](C)(C(=O)N[C@@H](CCC(N)=O)C(=O)N[C@@H](CCCCN)C(=O)N[C@@H](CCCCN)C(N)=O)NC(=O)[C@H](CCCCN)NC(=O)[C@H](CC(C)C)NC(=O)[C@H](CO)NC1=O)[C@@H](C)CC
notes: Stapled synthetic peptide
For B14, which Kd [1] is on record?
The Kd was 440 nM.

B15: hUbc12^Ac1-12 (Met) KE 5, 9 (peptide)
peptide: Ac-MIKLKSLKEQKK-NH2
modifications: bridge 5-9; also: K5-E9 staple, chemistry not given here
notes: Stapled synthetic peptide
Which Kd [1] does the source give for B15 here?
The Kd was 1060 nM.
